Reference: paper PMC2080633, “Dimerization of inositol monophosphatase Mycobacterium tuberculosis SuhB is not constitutive, but induced by binding of the activator Mg^2+” (BMC Structural Biology, 2007)

Target: the molecule itself
Test: AUC; sedimentation velocity, 1.0 mg.ml^-1 SuhB, no Mg^2+; 20 mM Tris-HCl pH 7.9, 50 mM NaCl, 40,000 rpm, 4°C; monomer to dimer

B1: Mycobacterium tuberculosis SuhB (Rv2701c), inositol monophosphatase (enzyme)
chain: MTRPDNEPARLRSVAENLAAEAAAFVRGRRAEVFGISRAGDGDGAVRAKSSPTDPVTVVDTDTERLLRDRLAQLRPGDPILGEEGGGPADVTATPSDRVTWVLDPIDGTVNFVYGIPAYAVSIGAQVGGITVAGAVADVAARTVYSAATGLGAHLTDERGRHVLRCTGVDELSMALLGTGFGYSVRCREKQAELLAHVVPLVRDVRRIGSAALDLCMVAAGRLDAYYEHGVQVWDCAAGALIAAEAGARVLLSTPRAGGAGLVVVAAAPGIADELLAALQRFNGLEPIPD
notes: Inositol monophosphatase SuhB (Rv2701c) of Mycobacterium tuberculosis; the crystal model covers residues 5-34, 54-85, 98-253, 260-286; also called IMPase
Question: How did the “stoichiometry N” value turn out when B1 was run?
Answer: 2
